The supplement of paper PMC12764529
± gives the half width of the 95% confidence interval.

Columns and labels:
[1] = folding stability dG unfold from chymotrypsin proteolysis; higher = more stable
How it was run: (§1)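 Designed mini-proteins (under 80 residues, no cysteine) in a PA-tagged cDNA display construct were digested with trypsin and chymotrypsin. Each protease was used at 11 concentrations (threefold dilutions) plus a no-protease condition, followed by sequencing. K50 was inferred by Bayesian fitting of sequencing counts, and unfolding free energy was derived against a sequence-predicted unfolded-state K50 and a shared folded-state K50, per protease or combined. Only designs with AlphaFold2 dimer inter-PAE above 15 were kept.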

[2] = folding stability dG unfold (combined trypsin and chymotrypsin); higher = more stable
How it was run: as §1

| Sequence | folding stability dG unfold [1] [kcal/mol] | folding stability dG unfold [2] [kcal/mol] |
| --- | --- | --- |
| SAPEIVVERFEDGSRRLGFTIPGYEVLEEVDVPANETEKTAVFTLPDRVLVFTFREEGIEPRPVPLDELSAG [r14_403_TrMRF] | -0.201 ± 0.3 | -0.598 ± 0.25 |
| SAPPATLTVDSVEFHPETGTLTIPFSHPAGPTASVLFRNEDGEVLEIPGTVPTATIRAEPNMRLERVFLGSA [r9_113_TrMRF] | 0.499 ± 0.1 | -0.0386 ± 0.081 |
| SASLTPVGPGPDSVVTADPSTGKLYRLEPADGRLTVTTTTFAPGPAAPAPTTTTLPLSPEEAAALRALLSAG [r14_245_JUSTAS] | -0.304 ± 0.26 | < -1 |
| SGGMTPEQMIRHVLREARANNPGKKIEISWNSIQKNFPHPMSPEEIKKELKEEDGIKDVTIQPIPPNDPFSA [r9_738_TrROS] | -0.315 ± 0.29 | < -1 |
| SGMPPVSVSSIEPVSVSPDGTSRTFRAPLTTPSGEPVTYTGPVSEILKRVEEEGWGPTASAPGGLVEVRDSA [r9_1078_JUSTAS] | -0.368 ± 0.12 | -0.583 ± 0.1 |
| SGMTPVSVSRKFTSTFPNGTPVSDPGGLVVLVPEPPPPPYVHLSPEEVEAARAAAAAAGSPLTEADIRASSA [r9_487_JUSTAS] | 0.164 ± 0.21 | -0.642 ± 0.42 |
| SGRIKDVIMERDDNGGGNIMIMKLGNGEMEHIPPGEKLEIPLPPDDTLYLMVFDPNDGEPIETEEIKVDDSA [r9_209_TrROS] | -0.367 ± 0.35 | < -1 |
| SMDVVTEVTVKLPYRDASHHHHLNIKVTRTISSKDPSLSPEALPPEVLAEEAKKEAIEELKKKGIPEEFLSA [r9_516_JUSTAS] | -0.346 ± 0.64 | < -1 |
| SMEFTIEVYDPVTPKVETFPVKAPKEKVIEKIREFQEKGGKVVLSGLPEEKVKEIVEEAGVDVEIVPVEKSA [r9_1207_TrMRF] | 0.54 ± 0.09 | 0.283 ± 0.19 |
| SMKTYTFTDPNNGIKYTITIDPNKPLVNVTVTKPGGEPVETQTVSVAPGKINLSLNVDGKPISISISLPESA [r9_385_JUSTAS] | 5.29 ± 0.15 | 5.37 ± 0.2 |
| SMSIKRARLRPEEIEAEIAALEAQGLRVKREPLEVTPVEVPLKLPDGTPRRVEVVEVVFRLELTPLDQPPSA [r9_991_JUSTAS] | -0.433 ± 0.48 | < -1 |
| SMTPEVSVITLRPVEVKKVGEVPVVTLEVTEVENAPEELLEKVKAGAKLTIEVPKDEPIEPDEEIEVVLPSA [r9_557_JUSTAS] | 0.146 ± 0.1 | -0.706 ± 0.27 |
| SMVYVPEKNVIIEESEKLFYDPNKPRDLRVKTTPVIEVSPSGEKKTLKTEITFYNPEGNPIFTEESEIEISA [r9_383_JUSTAS] | -0.399 ± 0.22 | < -1 |
| SSAEEIARRLAEELNLDRVEVRVERLRLEPAEAPEEVRVVRPAPPPPPVTEEERRRRPEERRRRLSEEELSA [r9_724_TrROS_Hall] | -0.262 ± 0.32 | < -1 |
| SSPVVVSESTDPNSSTKTITVTLPPNARVTLTLPGEPVETRPQPDATATLTTGPDALDITIEPLPPGVPLSA [r9_221_JUSTAS] | 0.474 ± 0.1 | -0.714 ± 0.24 |
| SSTTPYGDKTVVTTTTPVPGAGKELVTTTTYTFTPDPNSASTSTTATTTTTVTPLPEEAPTPEAVALRRASA [r9_363_JUSTAS] | -0.937 ± 0.44 | < -1 |
| SVIIKGPGPETYYVEKFGNETKITKFSTEGDKFYKKEYYETFDPNNKTVSRKENEVEEIEPEEEKPFSELSA [r9_83_JUSTAS] | 0.546 ± 0.11 | 0.0208 ± 0.11 |
| VSPLDLEGPGGLPPSELRRVSVLREETDPSVGEKRLSPVGTLFVPKDTSPEEVEAIIAARPDITRVEVRLLS [r1_132_JUSTAS] | 0.502 ± 0.067 | 0.0944 ± 0.082 |
